Test results taken from article PMC2435421.

Target: H-2D^b on RMA-S cells (mouse (endogenous in RMA-S))
Assay: flow cytometry on cells

gp33-wt, LCMV wild-type peptide antigen (gp33 residues 33-41)
half-life of the peptide-MHC complex (Peptide stability): > 1 h
